Target: T1, Recombinant human CTLA-4 (human, UniProt P16410 36-161, limits assumed)
T1 sequence (looked up): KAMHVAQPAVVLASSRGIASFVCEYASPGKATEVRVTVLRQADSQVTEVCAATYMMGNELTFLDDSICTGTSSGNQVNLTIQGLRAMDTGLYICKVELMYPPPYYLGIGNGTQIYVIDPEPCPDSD
Test: ELISA; recombinant human CTLA-4 coated at 5 µg/mL, T cell culture supernatant added, detected with rabbit anti-NGAL polyclonal antibody and goat anti-rabbit IgG-HRP
Method: FIG. 2: Detection of functional T-cell secreted CTLA-4 antagonist by ELISA. The supernatant of human peripheral blood T cells, mock-transduced or transduced with pSIN-(NFAT)6-αCTLA-4 and cultured under activatory conditions (cf. Example 1 and FIG. 1) was analyzed for the presence of functionally active CTLA-4 antagonist SEQ ID NO: 28 by ELISA. Recombinant human CTLA-4 was coated on an ELISA plate as described in Example 1, and culture supernatants of transduced and mock-transduced T cells were added. Plate-bound SEQ ID NO: 28 was detected by primary staining with an anti-NGAL polyclonal antibody from the rabbit, secondary staining using goat anti rabbit IgG-HRP and addition of a chromogenic HRP substrate as described in Example 1.
Supernatants were analyzed for the presence of functionally active Anticalin-based CTLA-4 antagonist by ELISA as described in the following: Recombinant human CTLA-4 at a concentration of 5 μg/mL in PBS was added to each well of a 384 well ELISA plate and incubated over night at 4° C. […] Subsequently, rabbit anti-NGAL polyclonal antibody at a concentration of 1 μg/mL in PBS/0.1% (w/v) Tween20/2% (w/v) BSA was added, and bound antibody was detected using goat anti-rabbit IgG-HRP in a dilution of 1:5,000 in PBS/0.1% (w/v) Tween20/2% (w/v) BSA. […] Fluorescence signals in RFU (relative fluorescence units) were measured using a plate fluorescence reader.

B1: Anticalin-based CTLA-4 antagonist with Strep-tag II, mature processed secreted form (SEQ ID NO: 28) (designed binder)
chain: QDSTSDLIPAPPLSKVPLQQNFQDNQFQGKWYVVGLAGNRILRQDQHPMLMYATIYELKEDKSYQVTSVISSHKKCLYPIATFVPGSQPGEFTLGNIKSYGDKVSYLVRVVSTNYNQHAMVFFKHADTNYESFSITLYGRTKELTSELKENFIRFSKSLGLPENHIVFPVPIDQCIDGSAWSHPQFEK
notes: also called anti-CTLA-4 Anticalin; αCTLA-4
- binding result: binds

From US20220296690A1 (Pieris, published 2022)
